Source: publication doi:10.1101/2024.06.14.598999 (bioRxiv, 2024)

Columns and labels:
[1] = biological target: T1, AP5 ζ/σ5 subcomplex, purified (mouse GST-AP5ζ-Twin-Strep with human AP5σ5) (mouse | human, UniProt Q3U829 1-807; Q9NUS5 1-200); assay: SEC
T1 sequence (looked up) 1: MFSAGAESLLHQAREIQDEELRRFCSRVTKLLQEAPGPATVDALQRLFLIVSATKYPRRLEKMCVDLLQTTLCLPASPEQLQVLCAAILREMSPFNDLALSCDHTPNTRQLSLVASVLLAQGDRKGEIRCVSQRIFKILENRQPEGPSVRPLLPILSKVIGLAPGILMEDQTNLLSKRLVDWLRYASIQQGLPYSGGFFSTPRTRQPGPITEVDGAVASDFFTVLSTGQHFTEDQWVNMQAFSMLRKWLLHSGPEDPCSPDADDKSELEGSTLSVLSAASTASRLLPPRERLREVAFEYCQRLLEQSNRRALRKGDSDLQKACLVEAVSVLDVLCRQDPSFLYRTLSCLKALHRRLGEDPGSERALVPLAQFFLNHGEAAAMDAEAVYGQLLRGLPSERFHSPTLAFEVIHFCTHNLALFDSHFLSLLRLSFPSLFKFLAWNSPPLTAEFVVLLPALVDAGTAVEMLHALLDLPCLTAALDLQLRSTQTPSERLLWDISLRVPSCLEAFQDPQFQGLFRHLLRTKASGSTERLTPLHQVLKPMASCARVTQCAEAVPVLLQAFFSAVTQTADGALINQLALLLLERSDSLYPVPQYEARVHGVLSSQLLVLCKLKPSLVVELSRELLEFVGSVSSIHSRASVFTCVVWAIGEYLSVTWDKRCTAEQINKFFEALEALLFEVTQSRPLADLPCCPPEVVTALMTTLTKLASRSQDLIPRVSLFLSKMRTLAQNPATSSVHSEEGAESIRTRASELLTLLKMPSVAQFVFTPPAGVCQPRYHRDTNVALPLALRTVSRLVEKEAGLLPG
T1 sequence (looked up) 2: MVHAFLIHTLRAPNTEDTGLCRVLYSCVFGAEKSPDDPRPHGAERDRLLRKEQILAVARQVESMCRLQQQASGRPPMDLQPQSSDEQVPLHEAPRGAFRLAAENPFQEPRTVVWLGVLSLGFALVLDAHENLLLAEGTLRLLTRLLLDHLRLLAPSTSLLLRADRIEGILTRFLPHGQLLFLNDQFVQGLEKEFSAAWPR

[2] = biological target: T2, AP5 β5^trunk/µ5 subcomplex, purified (human GST-AP5β5(1-632)-Twin-Strep with mouse AP5μ5) (human | mouse, UniProt Q2VPB7 1-632; Q8BJ63 1-490); assay: SEC
T2 sequence (looked up) 1: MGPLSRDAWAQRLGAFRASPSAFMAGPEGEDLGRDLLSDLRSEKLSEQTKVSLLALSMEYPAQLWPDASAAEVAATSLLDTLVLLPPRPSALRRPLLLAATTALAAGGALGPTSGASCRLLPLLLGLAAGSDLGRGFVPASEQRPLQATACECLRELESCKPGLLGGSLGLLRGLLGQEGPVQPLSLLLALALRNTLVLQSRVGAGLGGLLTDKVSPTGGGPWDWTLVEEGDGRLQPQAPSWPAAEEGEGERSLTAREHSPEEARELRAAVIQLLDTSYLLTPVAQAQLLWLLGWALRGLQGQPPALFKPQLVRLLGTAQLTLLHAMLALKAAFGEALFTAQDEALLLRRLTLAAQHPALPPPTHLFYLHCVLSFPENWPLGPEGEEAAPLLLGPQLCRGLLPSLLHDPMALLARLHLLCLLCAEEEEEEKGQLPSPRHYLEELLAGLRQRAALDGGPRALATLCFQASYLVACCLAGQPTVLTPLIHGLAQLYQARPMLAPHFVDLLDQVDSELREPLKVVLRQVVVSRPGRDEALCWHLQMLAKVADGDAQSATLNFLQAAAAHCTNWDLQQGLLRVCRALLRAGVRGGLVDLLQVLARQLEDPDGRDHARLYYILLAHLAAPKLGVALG
T2 sequence (looked up) 2: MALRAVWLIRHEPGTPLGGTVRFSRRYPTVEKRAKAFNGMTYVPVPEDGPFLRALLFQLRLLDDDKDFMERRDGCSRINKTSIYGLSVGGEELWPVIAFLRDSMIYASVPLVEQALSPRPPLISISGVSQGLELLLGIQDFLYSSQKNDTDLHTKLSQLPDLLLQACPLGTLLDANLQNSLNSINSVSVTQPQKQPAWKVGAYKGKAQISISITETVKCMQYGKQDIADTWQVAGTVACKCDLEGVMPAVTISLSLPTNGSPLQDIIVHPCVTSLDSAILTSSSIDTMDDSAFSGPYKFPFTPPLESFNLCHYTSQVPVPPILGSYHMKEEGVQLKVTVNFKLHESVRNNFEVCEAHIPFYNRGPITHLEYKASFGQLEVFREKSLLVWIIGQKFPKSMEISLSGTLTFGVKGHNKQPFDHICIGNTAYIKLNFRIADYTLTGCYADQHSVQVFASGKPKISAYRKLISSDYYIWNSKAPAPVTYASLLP

binding result [1]: binds | binding result [2]: binds
B1: SPG11^WD40-hairpin (human SPG11 residues 1-525) as incubated with the AP5 subcomplexes for size exclusion chromatography (domain or fragment, UniProt Q96JI7 1-525, looked up)
chain: MAAEEGVASAASAGGSWGTAAMGRVLPMLLVPVPAEAMGQLGSRAQLRTQPEALGSLTAAGSLQVLSLTPGSRGGGRCCLEGPFWHFLWEDSRNSSTPTEKPKLLALGENYELLIYEFNLKDGRCDATILYSCSREALQKLIDDQDISISLLSLRILSFHNNTSLLFINKCVILHIIFPERDAAIRVLNCFTLPLPAQAVDMIIDTQLCRGILFVLSSLGWIYIFDVVDGTYVAHVDLALHKEDMCNEQQQEPAKISSFTSLKVSQDLDVAVIVSSSNSAVALNLNLYFRQHPGHLLCERILEDLPIQGPKGVDEDDPVNSAYNMKLAKFSFQIDRSWKAQLSSLNETIKNSKLEVSCCAPWFQDILHLESPESGNHSTSVQSWAFIPQDIMHGQYNVLQKDHAKTSDPGRSWKIMHISEQEEPIELKCVSVTGFTALFTWEVERMGYTITLWDLETQGMQCFSLGTKCIPVDSSGDQQLCFVLTENGLSLILFGLTQEEFLNRLMIHGSASTVDTLCHLNGWGR
